Results taken from IntAct's records for PubMed 20708613.

B1: Voltage-gated delayed rectifier potassium channel KCNH1 (Homo sapiens), O95259-2 (parent)
chain: MTMAGGRRGLVAPQNTFLENIVRRSNDTNFVLGNAQIVDWPIVYSNDGFCKLSGYHRAEVMQKSSTCSFMYGELTDKDTIEKVRQTFENYEMNSFEILMYKKNRTPVWFFVKIAPIRNEQDKVVLFLCTFSDITAFKQPIEDDSCKGWGKFARLTRALTSSRGVLQQLAPSVQKGENVHKHSRLAEVLQLGSDILPQYKQEAPKTPPHIILHYCVFKTTWDWIILILTFYTAILVPYNVSFKTRQNNVAWLVVDSIVDVIFLVDIVLNFHTTFVGPAGEVISDPKLIRMNYLKTWFVIDLLSCLPYDVINAFENVDEGISSLFSSLKVVRLLRLGRVARKLDHYIEYGAAVLVLLVCVFGLAAHWMACIWYSIGDYEIFDEDTKTIRNNSWLYQLAMDIGTPYQFNGSGSGKWEGGPSKNSVYISSLYFTMTSLTSVGFGNIAPSTDIEKIFAVAIMMIGSLLYATIFGNVTTIFQQMYANTNRYHEMLNSVRDFLKLYQVPKGLSERVMDYIVSTWSMSRGIDTEKVLQICPKDMRADICVHLNRKVFKEHPAFRLASDGCLRALAMEFQTVHCAPGDLIYHAGESVDSLCFVVSGSLEVIQDDEVVAILGKGDVFGDVFWKEATLAQSCANVRALTYCDLHVIKRDALQKVLEFYTAFSHSFSRNLILTYNLRKRIVFRKISDVKREEEERMKRKNEAPLILPPDHPVRRLFQRFRQQKEARLAAERGGRDLDDLDVEKGNVLTEHASANHSLVKASVVTVRESPATPVSFQAASTSGVPDHAKLQAPGSECLGPKGGGGDCAKRKSWARFKDACGKSEDWNKVSKAESMETLPERTKASGEATLKKTDSCDSGITKSDLRLDNVGEARSPQDRSPILAEVKHSFYPIPEQTLQATVLEVRHELKEDIKALNAKMTNIEKQLSEILRILTSRRSSQSPQELFEISRPQSPESERDIFGAS
partner: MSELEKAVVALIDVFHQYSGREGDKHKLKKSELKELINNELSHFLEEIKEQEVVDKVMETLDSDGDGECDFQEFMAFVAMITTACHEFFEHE

Variants of: B1
Details: with S100B

Effect of a mutation on the interaction, disrupting interaction:
F714S
F717S

Variants of: B1
Details: with S100B
Remark: another data set of the same source

Effect of a mutation on the interaction, disrupting interaction:
R681N
R677N
R675N
K682N
